The target in the test is Recombinant soluble empty (peptide free) HLA-DR1 (human). As to the kind of experiment: competitive peptide binding assay.

The term Kd denotes the constant that tells how readily two partners part at equilibrium. Regarding “P2 S peptide (HA_(306–319) substituted at P2), unlabeled”, the Kd came to 97.2 nM.
For the substance “P2,3,7,10 SDPG peptide (HA_(306–319) substituted at P2, P3, P7 and P10), unlabeled”, the Kd was determined as 313000 nM.
Turning to “P2,7,10 SPG peptide (HA_(306–319) substituted at P2, P7 and P10), unlabeled”, the Kd came to 605 nM.
Take “P2,10 SG peptide (HA_(306–319) substituted at P2 and P10), unlabeled”: the Kd came to 373 nM.

Source of the values: article PMC3338121.
